From paper PMC3694354 (Biochemistry, 2008)

Experiments:
[1] = target: T1, 4-chlorobenzoate:CoA ligase (CBL; CBAL) (Alcaligenes sp. AL3007, UniProt Q8GN86); test: coupled AMP-forming assay, inhibition kinetics; format: biochemical
T1 sequence (Q8GN86 1-504): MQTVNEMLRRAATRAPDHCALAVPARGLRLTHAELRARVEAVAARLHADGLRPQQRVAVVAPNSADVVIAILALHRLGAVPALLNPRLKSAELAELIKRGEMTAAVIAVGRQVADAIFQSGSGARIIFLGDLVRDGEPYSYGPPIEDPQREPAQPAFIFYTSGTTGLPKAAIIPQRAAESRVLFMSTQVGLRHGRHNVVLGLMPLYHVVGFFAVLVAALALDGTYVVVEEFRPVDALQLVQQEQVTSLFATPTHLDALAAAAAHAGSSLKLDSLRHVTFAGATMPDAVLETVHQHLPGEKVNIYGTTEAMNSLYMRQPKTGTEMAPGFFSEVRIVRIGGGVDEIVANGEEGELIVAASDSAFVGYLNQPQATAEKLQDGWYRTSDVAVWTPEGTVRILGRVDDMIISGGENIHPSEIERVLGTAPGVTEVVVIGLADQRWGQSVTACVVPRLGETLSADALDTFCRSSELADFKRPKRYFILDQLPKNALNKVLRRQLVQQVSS

[2] = target: T1, 4-chlorobenzoate:CoA ligase (CBL; CBAL); test: direct spectrophotometric assay at […] nm, inhibition kinetics; format: biochemical
[3] = substrate: Nc1ncnc2c1ncn2[C@@H]1O[C@H](COP(=O)(O)OP(=O)(O)OP(=O)(O)O)[C@@H](O)[C@H]1O; test: coupled AMP-forming assay, initial velocity; format: biochemical, Alcaligenes sp. AL3007; conditions: 200 μM 4-methylbenzoate, CoA varied, 15 mM MgCl2, pH 7.5, 25 °C
[4] = substrate: CC(C)(COP(=O)(O)OP(=O)(O)OC[C@H]1O[C@@H](n2cnc3c(N)ncnc32)[C@H](O)[C@@H]1OP(=O)(O)O)[C@@H](O)C(=O)NCCC(=O)NCCS; test: coupled AMP-forming assay, initial velocity; format: biochemical, Alcaligenes sp. AL3007; conditions: 3.5 mM ATP, 4-methylbenzoate varied, 15 mM MgCl2, pH 7.5, 25 °C
[5] = substrate: Cc1ccc(C(=O)O)cc1; test: purified protein; conditions: 3.5 mM ATP, CoA varied, 15 mM MgCl2, pH 7.5, 25 °C

CC(C)(COP(=O)(O)OP(=O)(O)OC[C@H]1O[C@@H](n2cnc3c(N)ncnc32)[C@H](O)[C@@H]1OP(=O)(O)O)[C@@H](O)C(=O)NCCC(=O)NCCSCC(=O)c1ccc(Cl)cc1 [4-CP-CoA, 4-chlorophenacyl-CoA]
Ki [1]: 21 ± 8 µM

O=P(O)(O)OP(=O)(O)O [PPi]
Ki [1]: 95 ± 10 µM

Nc1ncnc2c1ncn2[C@@H]1O[C@H](COP(=O)(O)O)[C@@H](O)[C@H]1O [AMP]
Ki [2]: 120 ± 20 µM

CC(C)(COP(=O)(O)OP(=O)(O)OC[C@H]1O[C@@H](n2cnc3c(N)ncnc32)[C@H](O)[C@@H]1OP(=O)(O)O)[C@@H](O)C(=O)NCCC(=O)NCCSCc1ccc(Cl)cc1 [4-chlorobenzyl-CoA]
Ki [1]: 45 ± 10 µM

B1: 4-chlorobenzoate:CoA ligase (CBL; CBAL) (Alcaligenes sp. AL3007) (protein)
chain: T1 sequence (Q8GN86 1-504)
Km [3]: 180 ± 15 µM | kcat [3]: 8.2 ± 0.3 s⁻¹ | Km [4]: 160 ± 20 µM | kcat [4]: 8.0 ± 0.6 s⁻¹ | Km [5]: 30 ± 5 µM | kcat [5]: 8.0 ± 0.6 s⁻¹
